The target in the data set is UAF (Rrn5-Rrn9-Rrn10-Uaf30-H3-H4);TBP (TATA-box-binding protein) ((budding yeast);(budding yeast)) (UniProt Q02983+P53437+P38204+Q08747+P61830+P02309+P13393). Put plainly: cryo-EM 2.8 A. As to conditions: 30 mM Hepes-NaOH pH 7.5, 30 mM sodium citrate pH 6.0, 250 mM KCl, 2 mM DTT; filter binding 1 h at 4 C; footprinting on ice, then 2.5 mM MgCl2, 0.5 mM CaCl2 ….

On to “GAAAAAAAAAATATACGCTAAGATTTTTGGAGAATAGCTTAAATTGAAGTTTTTCTCGGCGAGAAATACGTAGTTAAGGCAGAGCGACAGAGAGGGCAAAAGAAAATAAAAGTAAGATTTTAGTTTGTAATGGGAGGGGGGGTTTAGTCAT (double strand) [35S rRNA promoter -190/-40 (cryo-EM DNA)]”, for which the binding entry is reported as “binds”.

For the origin of these results see article PMC9020658.
